These are literature values, as cited in publication PMC7294537.

pKd: −log10 of the molar value.

Series [1] has as its target CUE domain CUE (Saccharomyces cerevisiae) (UniProt P36075).
Series [2] concerns the target lysozyme (Gallus gallus) (UniProt P00698).

ubiquitin, sequence (P0CG63 1-76): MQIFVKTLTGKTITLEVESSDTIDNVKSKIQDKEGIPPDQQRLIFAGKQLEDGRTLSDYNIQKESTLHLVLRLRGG
lysozyme, sequence (P00698 19-147): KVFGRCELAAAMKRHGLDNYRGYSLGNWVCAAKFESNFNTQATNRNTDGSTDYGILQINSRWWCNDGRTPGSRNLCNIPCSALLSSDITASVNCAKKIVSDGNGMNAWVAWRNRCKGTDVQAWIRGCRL
CUE domain CUE (Saccharomyces cerevisiae), sequence (P36075 8-51): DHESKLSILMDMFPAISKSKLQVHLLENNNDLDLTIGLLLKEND

With ubiquitin (from UniProt P0CG63), the pKd in series [1] is 3.81. On to lysozyme (from UniProt P00698), for which, in series [2], the pKd was 2.57.

The term pKd denotes −log10 of the Kd, conventionally taken in molar units.
